Here are results for six molecules from patent US20040253629A1 (Stanford University, published 2004).

B2: Bok-L (Bcl-2-related ovarian killer, long form, rat) (other)
chain: MEVLRRSSVFAAEIMDAFDRSPTDKELVAQAKALGREYVHARLLRAGLSWSAPERASPAPGGRLAEVCTVLLRLGDELEQIRPSVYRNVARQLHIPLQSEPVVTDAFLAVAGHIFSAGITWGKVVSLYSVAAGLAVDCVRQAQPAMVHALVDCLGEFVRKTLATWLRRRGGWTDVLKCVVSTDPGFRSHWLVATLCSFGRFLKAAFFLLLPER
notes: also called full-length Bok protein
B4: BHRF1 (other)
chain: MAYSTREILLALCIRDSRVHGNGTLHPVLELAARETPLRLSPEDTVVLRYHVLLEEIIERNSETFTETWNRFITHTEHVDLDFNSVFLEIFHRGDPSLGRALAWMAWCMHACRTLCCNQSTPYYVVDLSVRGMLEASEGLDGWIHQQGGWSTLIEDNIPGSRRFSWTLFLAGLTLSLLVICSYLFISRGRH

The target in assay [1] is T1, Mcl-1 (rat) (rat, UniProt Q9Z1P3 1-330). The experiment in a line: yeast two-hybrid, Bok-S-GAL4-AD vs GAL4-BD fusion.
T1 sequence (Q9Z1P3 whole entry, the tested form may be a part): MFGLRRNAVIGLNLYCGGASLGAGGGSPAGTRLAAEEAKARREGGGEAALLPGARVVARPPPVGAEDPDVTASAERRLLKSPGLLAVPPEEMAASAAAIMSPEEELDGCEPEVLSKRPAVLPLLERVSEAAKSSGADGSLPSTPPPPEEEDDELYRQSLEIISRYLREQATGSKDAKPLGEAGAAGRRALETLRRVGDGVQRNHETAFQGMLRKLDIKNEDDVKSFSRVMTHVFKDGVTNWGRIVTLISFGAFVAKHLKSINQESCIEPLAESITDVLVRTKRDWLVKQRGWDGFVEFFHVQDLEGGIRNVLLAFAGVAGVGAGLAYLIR
The assay “BHRF1” addresses B4. The assay is described as follows: yeast two-hybrid, Bok-S-GAL4-AD vs GAL4-BD fusion.
Assay [2] addresses T1, Mcl-1 (rat). The assay is described as follows: yeast two-hybrid, yeast cell growth grade (++ prominent, + moderate).
Method: (§1) Specific binding of different protein pairs was evaluated based on the activation of GAL1-HIS3 and GAL4-lacZ reporter genes.
Assay [3] has as its target T1, Mcl-1 (rat). The assay is described as follows: yeast two-hybrid, mutant Bok-L-GAL4-AD vs GAL4-BD fusion.
Method: Yeast two-hybrid assay. […] After transformation of yeast cells, colonies containing different protein pairs were selected on plates lacking tryptophan and leucine. To test for specific protein-protein interactions, positive transformants were further selected for growth in media deficient for tryptophan, leucine and histidine but containing 5-30 mM 3-aminotriazole to inhibit endogenous histidine production. A minimum of five independent transformants containing each pair of fusion cDNAs was routinely analyzed.
The mutants included alanine substitutions at the highly conserved glycine 75 or glycine 75 plus flanking aspartic acid 76 and glutamic acid 77 (BokADE: G 75 A and BokAAA: 75 AAA 77). In addition, a glycine substitution was made for leucine 71 to leucine 74 (BokGGGG: 71 LLRL 74 to 71 GGGG 74).
Assay [4] addresses B2. The assay is described as follows: yeast two-hybrid, yeast cell growth grade (++ prominent, + moderate).
Method: as §1

B1: Bok-S (short splicing variant of Bok, rat) (other)
chain: MEVLRRSSVFAAEIMDAFDRSPTDKELVAQAKALGREYVHARLLRAGLSWSAPERASPAPGGRLAEVCTVLLRLGITWGKVVSLYSVAAGLAVDCVRQAQPAMVHALVDCLGEFVRKTLATWLRRRGGWTDVLKCVVSTDPGFRSHWLVATLCSFGRFLKAAFFLLLPER
notes: also called truncated Bok
As for B1, the binding result with Mcl-1 (rat) [1] and with BHRF1 was “no binding” in each case.
As for B2, the binding result with Mcl-1 (rat) [2] was “binds”.

B3: BokAAA (Bok-L 75 AAA 77) (other)
chain: MEVLRRSSVFAAEIMDAFDRSPTDKELVAQAKALGREYVHARLLRAGLSWSAPERASPAPGGRLAEVCTVLLRLAAALEQIRPSVYRNVARQLHIPLQSEPVVTDAFLAVAGHIFSAGITWGKVVSLYSVAAGLAVDCVRQAQPAMVHALVDCLGEFVRKTLATWLRRRGGWTDVLKCVVSTDPGFRSHWLVATLCSFGRFLKAAFFLLLPER
notes: also called BokAAA: 75 AAA 77
On to B3, for which the binding result with Mcl-1 (rat) [3] was “no binding”.
With B4, the binding result in assay [4] was “binds”.

B5: BokGGGG (Bok-L 71 LLRL 74 to 71 GGGG 74) (other)
chain: MEVLRRSSVFAAEIMDAFDRSPTDKELVAQAKALGREYVHARLLRAGLSWSAPERASPAPGGRLAEVCTVGGGGGDELEQIRPSVYRNVARQLHIPLQSEPVVTDAFLAVAGHIFSAGITWGKVVSLYSVAAGLAVDCVRQAQPAMVHALVDCLGEFVRKTLATWLRRRGGWTDVLKCVVSTDPGFRSHWLVATLCSFGRFLKAAFFLLLPER
notes: also called BokGGGG mutant
On to B5, for which the binding result with Mcl-1 (rat) [3] is given as “no binding”.

B6: BokADE (Bok-L G75A) (other)
chain: MEVLRRSSVFAAEIMDAFDRSPTDKELVAQAKALGREYVHARLLRAGLSWSAPERASPAPGGRLAEVCTVLLRLADELEQIRPSVYRNVARQLHIPLQSEPVVTDAFLAVAGHIFSAGITWGKVVSLYSVAAGLAVDCVRQAQPAMVHALVDCLGEFVRKTLATWLRRRGGWTDVLKCVVSTDPGFRSHWLVATLCSFGRFLKAAFFLLLPER
notes: also called BokADE: G 75 A
For the molecule B6, in the assay with Mcl-1 (rat) [3], the binding result is reported as “no binding”.
